The record followed here is paper PMC11818384, “Structural Characteristics and Properties of the RNA-Binding Protein hnRNPK at Multiple Physical States” (International Journal of Molecular Sciences, 2025).

Several values for one entry are separate records, joined by “and”; a condition that tells them apart may be missing. Identical values can stand only once.

Series [1] deals with the molecule itself. The series can be described thus: SEC-MALS; SEC-LS (RALS, RI, UV) on Superdex 200 Increase 10/300 at room temperature; hnRNPK sample incubated at room temperature. In general terms: SEC sorts molecules by how far they enter the pores of the column.
Series [2] concerns the molecule itself. Kind of series: SEC-MALS; SEC-LS (RALS, RI, UV) on Superdex 200 Increase 10/300 run at room temperature; hnRNPK sample kept at 4 °C (vial holder at 4 °C), low concentration.

B1: Heterogeneous nuclear ribonucleoprotein K (hnRNPK), full-length wild type with an additional N-terminal glycine (natural protein)
chain: not shown
notes: additional glycine residue at the N-terminus, told in words; heterogeneous nuclear ribonucleoprotein K, full-length wild type; theoretical molar mass with the extra glycine 51,033 Da; also called H-hnRNPK; hydrogenated hnRNPK; source: E. coli Rosetta2 (DE3), purified (Ni Hi-trap, TEV cleavage, second Hi-trap, Superdex 200); not shown: His6, N-terminal, cleaved; eGFP, N-terminal, cleaved
With B1, the “stoichiometry N” value in series [1] is 2.88 hnRNPK molecules per particle (measured MM : theoretical MM) and 1.53 hnRNPK molecules per particle (measured MM : theoretical MM); in series [2], 1.98 hnRNPK molecules per particle (measured MM : theoretical MM).
